Results reported in patent US7276644.

Biological target: actin of the acto-HMM complexes in Example II
Experiment: stopped-flow; effects of ADP on ATP-mediated dissociation of acto-HMM

maximum rate constant for dissociation of acto-HMM (ATP-mediated, with ADP) [s⁻¹] | Substance
140 | HMM from rat β cardiac myosin heavy chain (hypothyroid rat) (from UniProt P02564 1-1282) (enzyme)
600 | rat α cardiac myosin HMM (chymotryptic heavy meromyosin of native hyperthyroid rat ventricular α-myosin) (from UniProt P02563 1-1285) (enzyme)
35 | HMM from pig β cardiac myosin heavy chain (from UniProt P79293 1-1282) (enzyme)
